Measured values taken from patent publication US20180186893A1 (NATIONAL RESEARCH COUNCIL OF CANADA, published 2018).

Tests used:
rmCA-IX = biological target: T1, rmCA-IX (murine, UniProt Q8VHB5 32-389, limits assumed); assay: SPR, antibody captured by anti-human Fc
T1 construct: Bought; construct not described; also called recombinant murine (rm)CA-IX

rhCA-IV = biological target: T2, rhCA-IV (human, UniProt P22748 19-283, limits assumed); assay: SPR, antibody captured by anti-human Fc
T2 construct: Bought; construct not described; also called recombinant human CA-IV
T2 sequence (P22748 19-283 limits assumed): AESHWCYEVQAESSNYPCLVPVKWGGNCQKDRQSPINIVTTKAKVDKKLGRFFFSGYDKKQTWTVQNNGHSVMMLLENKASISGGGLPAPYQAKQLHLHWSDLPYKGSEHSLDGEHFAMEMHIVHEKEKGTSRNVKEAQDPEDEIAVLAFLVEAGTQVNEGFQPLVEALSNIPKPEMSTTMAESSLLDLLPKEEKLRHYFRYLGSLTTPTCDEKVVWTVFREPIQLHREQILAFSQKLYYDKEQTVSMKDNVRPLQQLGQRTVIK

[1] = biological target: T3, human CA-XII extracellular domain (ECD) (human, UniProt O43570 25-301); assay: SPR, antibody captured by anti-human Fc
T3 construct: extracellular domain
T3 sequence (O43570 25-301): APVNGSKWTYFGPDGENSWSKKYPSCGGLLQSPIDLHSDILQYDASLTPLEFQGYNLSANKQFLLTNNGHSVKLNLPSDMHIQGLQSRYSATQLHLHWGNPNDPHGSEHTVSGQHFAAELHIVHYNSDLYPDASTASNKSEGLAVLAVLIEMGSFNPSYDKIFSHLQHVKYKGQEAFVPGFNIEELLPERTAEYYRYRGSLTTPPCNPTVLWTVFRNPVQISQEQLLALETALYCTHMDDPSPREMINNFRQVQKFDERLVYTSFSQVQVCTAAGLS

rhCA-XII = biological target: T4, rhCA-XII (human, UniProt O43570 25-291, limits assumed); assay: SPR, antibody captured by anti-human Fc
T4 construct: Bought; construct not described; also called recombinant human CA-XII (Sino Biologics)
T4 sequence (O43570 25-291 limits assumed): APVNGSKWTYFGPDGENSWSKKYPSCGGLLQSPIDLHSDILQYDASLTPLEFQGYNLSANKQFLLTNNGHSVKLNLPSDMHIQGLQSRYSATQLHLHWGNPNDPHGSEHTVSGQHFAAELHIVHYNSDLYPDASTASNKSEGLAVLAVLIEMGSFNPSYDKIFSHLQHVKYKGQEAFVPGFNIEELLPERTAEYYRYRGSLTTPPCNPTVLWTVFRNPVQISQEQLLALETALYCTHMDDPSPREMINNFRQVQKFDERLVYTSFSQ

rhCA-XIV = biological target: T5, rhCA-XIV (human, UniProt Q9ULX7 16-290, limits assumed); assay: SPR, antibody captured by anti-human Fc
T5 construct: Bought; construct not described; also called recombinant human CA-XIV
T5 sequence (Q9ULX7 16-290 limits assumed): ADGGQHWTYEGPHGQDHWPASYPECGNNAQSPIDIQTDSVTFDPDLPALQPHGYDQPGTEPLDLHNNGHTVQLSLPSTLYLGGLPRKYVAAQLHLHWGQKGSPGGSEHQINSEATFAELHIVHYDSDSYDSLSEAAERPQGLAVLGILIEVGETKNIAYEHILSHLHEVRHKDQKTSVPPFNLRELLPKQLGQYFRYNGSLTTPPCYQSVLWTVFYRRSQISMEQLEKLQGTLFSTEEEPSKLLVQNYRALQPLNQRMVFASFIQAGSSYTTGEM

[2] = biological target: T6, dimeric CA-IX extracellular domain (ECD) from mouse (mouse, UniProt Q8VHB5 32-390); assay: SPR, antibody captured by anti-human Fc, specific binding yes/no
T6 construct: extracellular domain
T6 sequence (Q8VHB5 32-390): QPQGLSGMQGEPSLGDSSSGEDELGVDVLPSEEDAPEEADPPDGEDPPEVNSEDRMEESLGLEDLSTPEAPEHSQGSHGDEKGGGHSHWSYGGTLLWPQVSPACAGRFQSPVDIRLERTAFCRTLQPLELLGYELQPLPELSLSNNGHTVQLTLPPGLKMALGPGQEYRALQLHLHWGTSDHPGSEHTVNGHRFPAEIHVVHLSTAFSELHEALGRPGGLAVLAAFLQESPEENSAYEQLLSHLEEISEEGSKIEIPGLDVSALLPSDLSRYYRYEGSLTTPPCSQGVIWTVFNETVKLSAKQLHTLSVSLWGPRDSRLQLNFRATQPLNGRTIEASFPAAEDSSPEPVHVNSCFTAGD

[3] = biological target: T7, hCA-IX fragment 2 (aa 38-136, +PG+) displayed on yeast as Aga2-HA-CA9-MYC (pPNL6), clone 2B (human, UniProt P32781 19-87; Q16790 38-136); assay: YSD whole yeast cell ELISA, native, normalised to anti-MYC
T7 construct: not shown: HA tag; MYC tag
T7 sequence (P32781 19-87 limits assumed, chain 1 of 2, other chains not shown): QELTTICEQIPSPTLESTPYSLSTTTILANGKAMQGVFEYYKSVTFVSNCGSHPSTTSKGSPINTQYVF

rhCA-IX ECD dimer [4] = biological target: T8, rhCA-IX ECD dimer (human, UniProt Q16790 38-414); assay: SPR (ProteOn XPR36), antibody captured by anti-human Fc, 0.74-60 nM antigen flowed, 1:1 model, 25 C
[5] = biological target: T9, hCA-IX PG domain fragment #1 (aa 37-51) displayed on yeast as Aga2-HA-CA9-MYC (pPNL6), clone 1 A + B (human, UniProt P32781 19-87 (Saccharomyces cerevisiae entry)); assay: YSD whole yeast cell ELISA, native PG tiling fragment, normalised to anti-MYC
T9 construct: not shown: HA tag; MYC tag
T9 sequence (P32781 19-87 limits assumed): as the sequence (P32781 19-87 limits assumed, chain 1 of 2, other chains not shown) above

[6] = biological target: T10, hCA-IX PG domain fragment #14 (aa 37-140) displayed on yeast as Aga2-HA-CA9-MYC (pPNL6), clone 14 A + B (human, UniProt P32781 19-87 (Saccharomyces cerevisiae entry)); assay: as above
T10 construct: not shown: HA tag; MYC tag
T10 sequence (P32781 19-87 limits assumed, chain 1 of 2): as the sequence (P32781 19-87 limits assumed, chain 1 of 2, other chains not shown) above
T10 sequence (chain (part 2 of 2), as listed by the source limits assumed, chain 2 of 2): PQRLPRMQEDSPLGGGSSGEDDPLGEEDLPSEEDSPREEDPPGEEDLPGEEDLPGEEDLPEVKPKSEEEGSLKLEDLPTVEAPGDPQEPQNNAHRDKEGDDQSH

[7] = biological target: T11, hCA-IX PG domain fragment #11 (aa 37-71) displayed on yeast as Aga2-HA-CA9-MYC (pPNL6), clone 11 A + B (human, UniProt P32781 19-87 (Saccharomyces cerevisiae entry)); assay: as above
T11 construct: not shown: HA tag; MYC tag
T11 sequence (P32781 19-87 limits assumed, chain 1 of 2): as the sequence (P32781 19-87 limits assumed, chain 1 of 2, other chains not shown) above
T11 sequence (chain (part 2 of 2), as listed by the source limits assumed, chain 2 of 2): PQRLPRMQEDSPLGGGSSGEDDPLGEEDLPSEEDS

[8] = biological target: human Carbonic Anhydrase IX (hCA-IX) (human, UniProt Q16790 38-459); assay: cell-based or functional assay
[9] = biological target: T12, hCA-IX PG domain fragment #9 (aa 117-131) displayed on yeast as Aga2-HA-CA9-MYC (pPNL6), clone 9 A + B (human, UniProt P32781 19-87 (Saccharomyces cerevisiae entry)); assay: YSD whole yeast cell ELISA, native PG tiling fragment;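 further: monoclonal antibody binding to intact yeast cells displaying the fragment, read by ELISA, with the anti-CA-IX signal normalized against the anti-MYC display signal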
T12 construct: not shown: HA tag; MYC tag
T12 sequence (P32781 19-87 limits assumed): as the sequence (P32781 19-87 limits assumed, chain 1 of 2, other chains not shown) above

[10] = biological target: T13, hCA-IX PG domain fragment #2 (aa 47-61) displayed on yeast as Aga2-HA-CA9-MYC (pPNL6), clone 2 A + B (human, UniProt P32781 19-87 (Saccharomyces cerevisiae entry)); assay: as above
T13 construct: not shown: HA tag; MYC tag
T13 sequence (P32781 19-87 limits assumed): as the sequence (P32781 19-87 limits assumed, chain 1 of 2, other chains not shown) above

[11] = biological target: T14, hCA-IX PG domain fragment #13 (aa 107-140) displayed on yeast as Aga2-HA-CA9-MYC (pPNL6), clone 13 A + B (human, UniProt P32781 19-87 (Saccharomyces cerevisiae entry)); assay: as above
T14 construct: not shown: HA tag; MYC tag
T14 sequence (P32781 19-87 limits assumed, chain 1 of 2): as the sequence (P32781 19-87 limits assumed, chain 1 of 2, other chains not shown) above
T14 sequence (chain (part 2 of 2), as listed by the source limits assumed, chain 2 of 2): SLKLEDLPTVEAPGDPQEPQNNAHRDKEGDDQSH

[12] = biological target: T15, hCA-IX PG domain fragment #8 (aa 107-121) displayed on yeast as Aga2-HA-CA9-MYC (pPNL6), clone 8 A + B (human, UniProt P32781 19-87 (Saccharomyces cerevisiae entry)); assay: as above
T15 construct: not shown: HA tag; MYC tag
T15 sequence (P32781 19-87 limits assumed): as the sequence (P32781 19-87 limits assumed, chain 1 of 2, other chains not shown) above

[13] = biological target: T16, hCA-IX PG domain fragment #7 (aa 97-111) displayed on yeast as Aga2-HA-CA9-MYC (pPNL6), clone 7 A + B (human, UniProt P32781 19-87 (Saccharomyces cerevisiae entry)); assay: as above
T16 construct: not shown: HA tag; MYC tag
T16 sequence (P32781 19-87 limits assumed): as the sequence (P32781 19-87 limits assumed, chain 1 of 2, other chains not shown) above

[14] = biological target: T17, hCA-IX PG domain fragment #4 (aa 67-81) displayed on yeast as Aga2-HA-CA9-MYC (pPNL6), clone 4 A + B (human, UniProt P32781 19-87 (Saccharomyces cerevisiae entry)); assay: as above
T17 construct: not shown: HA tag; MYC tag
T17 sequence (P32781 19-87 limits assumed): as the sequence (P32781 19-87 limits assumed, chain 1 of 2, other chains not shown) above

[15] = biological target: T18, hCA-IX PG domain fragment #10 (aa 126-140) displayed on yeast as Aga2-HA-CA9-MYC (pPNL6), clone 10 A + B (human, UniProt P32781 19-87 (Saccharomyces cerevisiae entry)); assay: as above
T18 construct: not shown: HA tag; MYC tag
T18 sequence (P32781 19-87 limits assumed): as the sequence (P32781 19-87 limits assumed, chain 1 of 2, other chains not shown) above

[16] = biological target: T19, hCA-IX PG domain fragment #12 (aa 67-111) displayed on yeast as Aga2-HA-CA9-MYC (pPNL6), clone 12 A + B (human, UniProt P32781 19-87 (Saccharomyces cerevisiae entry)); assay: as above
T19 construct: not shown: HA tag; MYC tag
T19 sequence (P32781 19-87 limits assumed, chain 1 of 2): as the sequence (P32781 19-87 limits assumed, chain 1 of 2, other chains not shown) above
T19 sequence (chain (part 2 of 2), as listed by the source limits assumed, chain 2 of 2): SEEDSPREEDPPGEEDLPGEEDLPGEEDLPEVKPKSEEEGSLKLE

[17] = biological target: T20, hCA-IX PG domain fragment #5 (aa 77-91) displayed on yeast as Aga2-HA-CA9-MYC (pPNL6), clone 5 A + B (human, UniProt P32781 19-87 (Saccharomyces cerevisiae entry)); assay: as above
T20 construct: not shown: HA tag; MYC tag
T20 sequence (P32781 19-87 limits assumed): as the sequence (P32781 19-87 limits assumed, chain 1 of 2, other chains not shown) above

[18] = biological target: T21, hCA-IX PG domain fragment #6 (aa 87-101) displayed on yeast as Aga2-HA-CA9-MYC (pPNL6), clone 6 A + B (human, UniProt P32781 19-87 (Saccharomyces cerevisiae entry)); assay: as above
T21 construct: not shown: HA tag; MYC tag
T21 sequence (P32781 19-87 limits assumed): as the sequence (P32781 19-87 limits assumed, chain 1 of 2, other chains not shown) above

[19] = biological target: T22, hCA-IX PG domain fragment #3 (aa 57-71) displayed on yeast as Aga2-HA-CA9-MYC (pPNL6), clone 3 A + B (human, UniProt P32781 19-87 (Saccharomyces cerevisiae entry)); assay: as above
T22 construct: not shown: HA tag; MYC tag
T22 sequence (P32781 19-87 limits assumed): as the sequence (P32781 19-87 limits assumed, chain 1 of 2, other chains not shown) above

[20] = biological target: T23, hCA-IX fragment 8 (aa 38-414, +PG+CA+) displayed on yeast as Aga2-HA-CA9-MYC (pPNL6), clone 8B (human, UniProt P32781 19-87; Q16790 38-414); assay: YSD whole yeast cell ELISA, heat-denatured (80 C, 30 min), normalised to anti-MYC
T23 sequence (P32781 19-87 limits assumed, chain 1 of 2, other chains not shown): as above

rhCA-IX ECD dimer [21] = biological target: T8, rhCA-IX ECD dimer; assay: SPR (ProteOn XPR36), mAb captured by anti-mouse Fc, 60 nM antigen flowed, 1:1 model, 25 C
[22] = biological target: T24, rhCA-IX ECD mixture (monomer + dimer) (human, UniProt Q16790 38-414); assay: as above
[23] = biological target: T24, rhCA-IX ECD mixture (monomer + dimer); assay: reverse phase protein array, purified antigen; RPPA; ratio native/denatured, purified antigen
[24] = biological target: T23, hCA-IX fragment 8 (aa 38-414, +PG+CA+) …; assay: YSD whole yeast cell ELISA, native, normalised to anti-MYC
[25] = biological target: T19, hCA-IX PG domain fragment #12 (aa …); assay: YSD whole yeast cell ELISA, native PG tiling fragment, normalised to anti-MYC
[26] = biological target: T20, hCA-IX PG domain fragment #5 (aa 77-91) …; assay: as above
[27] = biological target: T21, hCA-IX PG domain fragment #6 (aa …); assay: as above
[28] = biological target: T9, hCA-IX PG domain fragment #1 (aa 37-51) …; assay: YSD whole yeast cell ELISA, native PG tiling fragment;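 further: monoclonal antibody binding to intact yeast cells displaying the fragment, read by ELISA, with the anti-CA-IX signal normalized against the anti-MYC display signal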
[29] = biological target: T11, hCA-IX PG domain fragment #11 (aa …); assay: as above

T1 sequence (Q8VHB5 32-389 limits assumed): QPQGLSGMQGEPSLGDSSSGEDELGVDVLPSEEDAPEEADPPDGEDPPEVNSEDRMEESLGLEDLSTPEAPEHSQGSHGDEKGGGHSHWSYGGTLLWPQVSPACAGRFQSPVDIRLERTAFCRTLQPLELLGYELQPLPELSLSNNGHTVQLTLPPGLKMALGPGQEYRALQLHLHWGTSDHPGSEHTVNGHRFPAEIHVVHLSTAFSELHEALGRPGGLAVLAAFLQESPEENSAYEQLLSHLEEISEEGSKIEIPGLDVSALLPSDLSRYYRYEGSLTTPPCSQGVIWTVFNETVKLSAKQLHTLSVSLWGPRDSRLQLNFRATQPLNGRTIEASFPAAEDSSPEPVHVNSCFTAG

| Binder | binding result (rmCA-IX) | binding result (rhCA-IV) | binding result [1] | binding result (rhCA-XII) | binding result (rhCA-XIV) | binding result [3] | binding result [6] | binding result [9] | binding result [10] | binding result [13] | binding result [14] | binding result [15] | binding result [19] | further results |
| --- | --- | --- | --- | --- | --- | --- | --- | --- | --- | --- | --- | --- | --- | --- |
| c12H8 (chimeric 12H8, human IgG1 / human kappa 1) (antibody, V domains shown, Expressed in CHO cells) VH: QIQLVQSGPELKKPGETVKISCKASGYTFTNYGMNWVQQAPGKGLKWMGWINTYTGEPTYADDFKGRFAFSLETSASTAYLQINNLKNEDMATYFCARGGIATPTSYWGQGTTLTVSS VL: not shown | no binding (tested: 100 nM) | no binding (tested: 100 nM) | no binding (tested: 100 nM) | no binding (tested: 100 nM) | no binding (tested: 100 nM) | binds | binds | no binding | no binding | no binding | no binding | no binding | no binding | binding result [2]: no binding; Kd (rhCA-IX ECD dimer [4]): 0.979 nM; binding result [5]: binds; binding result [7]: binds; IC50 (nM), cell viability of sk-rc-52 cells, surrogate ADC assay (Mab-Zap saporin secondary antibody) [8]: 23.6 nM; binding result [11]: no binding; binding result [12]: no binding; binding result [16]: no binding; binding result [17]: no binding; binding result [18]: no binding; binding result [20]: binds |
| c12H8-DM1 (antibody, V domains shown, DM1 (mertansine) conjugated with SMCC-DM1, target DAR 3.5; sites not stated) VH: QIQLVQSGPELKKPGETVKISCKASGYTFTNYGMNWVQQAPGKGLKWMGWINTYTGEPTYADDFKGRFAFSLETSASTAYLQINNLKNEDMATYFCARGGIATPTSYWGQGTTLTVSS VL: not shown | – | – | – | – | – | – | – | – | – | – | – | – | – | IC50 (nM), cell viability of sk-rc-52 cells, ADC assay [8]: 17.9 nM |
| mAb 12H8 (hybridoma-derived) (antibody, mouse IgG1, V domains shown, also called clone 12H8 (fusion F101); 12HD8) VH: QIQLVQSGPELKKPGETVKISCKASGYTFTNYGMNWVQQAPGKGLKWMGWINTYTGEPTYADDFKGRFAFSLETSASTAYLQINNLKNEDMATYFCARGGIATPTSYWGQGTTLTVSS VL: not shown | – | – | – | – | – | – | – | – | – | – | – | – | – | Kd (rhCA-IX ECD dimer [21]): 0.143 nM; koff [22]: < 1e-05 s⁻¹; Ratio (A)/(B), native over denatured [23]: 1.11 |
| c11H9 (chimeric 11H9, human IgG1 / human kappa 1) (antibody, V domains shown, Expressed in CHO cells; also called chimeric (c) 11H9; c1H9) VH: EVQLVESGGRLVQPKGSLKLSCAASGFTFNTYAMYWIRQAPGKGLEWVARIRSKSNNYAIYYADSVKDRFTISRDDSQSMLYLQMNNLKTEDTAMYYCVRGWDWFAYWGQGTPVTVSA VL: DVVMTQTPLSLPVSLGDQASISCRSSQSLVHSNGNTYLHWYLQKPGQSPKLLIYKVSNRFSGVPDRFSGSGSGTDFTLKISRVEAEDLGVYFCSQNTHVPPTFGGGTKLEIKR | no binding (tested: 100 nM) | no binding (tested: 100 nM) | no binding (tested: 100 nM) | no binding (tested: 100 nM) | no binding (tested: 100 nM) | binds | binds | no binding | no binding | no binding | no binding | no binding | no binding | binding result [24]: binds; binding result [25]: binds; binding result [26]: binds; binding result [27]: binds; binding result [28]: no binding; binding result [29]: no binding |
